B1: MinC-GS linker mutant (natural protein, E. coli)
chain: MSNTPIELKGSSFTLSVVHLHEAEPKVIHQALEDKIAQAPAFLKHAPVVLNVSALEDPVNWSAMHKAVSATGLRVIGVSGCKDAQLKAEIEKMGLPILTEGGSPVTKTRLIDTPVRSGQRIYAPQCDLIVTSHVSAGAELIADGNIHVYGMMRGRALAGASGDRETQIFCTNLMAELVSIAGEYWLSDQIPAEFYGKAARLQLVENALTVQPLN
notes: MinC, E. coli MG1655, N-terminal part before the linker, residues 1-101; linker that replaces residues 102-120 of MinC; MinC, E. coli MG1655, C-terminal part after the linker, residues 121-231; Made from pET28a-MinC by amplifying the whole plasmid except residues 102-120; source: E. coli Rosetta(DE3)pLysS, purified (nickel IMAC, desalting); His tag removed with thrombin; not shown: T7 tag, …
B2: MinC19RL linker mutant (natural protein, E. coli)
chain: MSNTPIELKGSSFTLSVVHLHEAEPKVIHQALEDKIAQAPAFLKHAPVVLNVSALEDPVNWSAMHKAVSATGLRVIGVSGCKDAQLKAEIEKMGLPILTEGAGGSGAGGSGAGGSGAGGSPVTKTRLIDTPVRSGQRIYAPQCDLIVTSHVSAGAELIADGNIHVYGMMRGRALAGASGDRETQIFCTNLMAELVSIAGEYWLSDQIPAEFYGKAARLQLVENALTVQPLN
notes: MinC, E. coli MG1655, N-terminal part before the linker, residues 1-101; linker that replaces residues 102-120 of MinC: as the 4x linker but without the last glycine, 19 residues; MinC, E. coli MG1655, C-terminal part after the linker, residues 121-231; source: E. coli Rosetta(DE3)pLysS, purified (nickel IMAC, desalting); His tag removed with thrombin; not shown: T7 tag, N-terminal, kept
B3: MinC-2xAGGSG linker mutant (natural protein, E. coli)
chain: MSNTPIELKGSSFTLSVVHLHEAEPKVIHQALEDKIAQAPAFLKHAPVVLNVSALEDPVNWSAMHKAVSATGLRVIGVSGCKDAQLKAEIEKMGLPILTEGAGGSGAGGSGPVTKTRLIDTPVRSGQRIYAPQCDLIVTSHVSAGAELIADGNIHVYGMMRGRALAGASGDRETQIFCTNLMAELVSIAGEYWLSDQIPAEFYGKAARLQLVENALTVQPLN
notes: MinC, E. coli MG1655, N-terminal part before the linker, residues 1-101; linker that replaces residues 102-120 of MinC: AGGSG repeated twice; MinC, E. coli MG1655, C-terminal part after the linker, residues 121-231; source: E. coli Rosetta(DE3)pLysS, purified (nickel IMAC, desalting); His tag removed with thrombin; not shown: T7 tag, N-terminal, kept
B4: MinC-4xAGGSG linker mutant (natural protein, E. coli)
chain: MSNTPIELKGSSFTLSVVHLHEAEPKVIHQALEDKIAQAPAFLKHAPVVLNVSALEDPVNWSAMHKAVSATGLRVIGVSGCKDAQLKAEIEKMGLPILTEGAGGSGAGGSGAGGSGAGGSGPVTKTRLIDTPVRSGQRIYAPQCDLIVTSHVSAGAELIADGNIHVYGMMRGRALAGASGDRETQIFCTNLMAELVSIAGEYWLSDQIPAEFYGKAARLQLVENALTVQPLN
notes: MinC, E. coli MG1655, N-terminal part before the linker, residues 1-101; linker that replaces residues 102-120 of MinC: AGGSG repeated four times; MinC, E. coli MG1655, C-terminal part after the linker, residues 121-231; source: E. coli Rosetta(DE3)pLysS, purified (nickel IMAC, desalting); His tag removed with thrombin; not shown: T7 tag, N-terminal, kept
B5: MinC-3xAGGSG linker mutant (natural protein, E. coli)
chain: MSNTPIELKGSSFTLSVVHLHEAEPKVIHQALEDKIAQAPAFLKHAPVVLNVSALEDPVNWSAMHKAVSATGLRVIGVSGCKDAQLKAEIEKMGLPILTEGAGGSGAGGSGAGGSGPVTKTRLIDTPVRSGQRIYAPQCDLIVTSHVSAGAELIADGNIHVYGMMRGRALAGASGDRETQIFCTNLMAELVSIAGEYWLSDQIPAEFYGKAARLQLVENALTVQPLN
notes: MinC, E. coli MG1655, N-terminal part before the linker, residues 1-101; linker that replaces residues 102-120 of MinC: AGGSG repeated three times; MinC, E. coli MG1655, C-terminal part after the linker, residues 121-231; source: E. coli Rosetta(DE3)pLysS, purified (nickel IMAC, desalting); His tag removed with thrombin; not shown: T7 tag, N-terminal, kept
B6: MinE (E. coli) (natural protein, UniProt P0A734 1-88, looked up)
chain: MALLDFFLSRKKNTANIAKERLQIIVAERRRSDAEPHYLPQLRKDILEVICKYVQIDPEMVTVQLEQKDGDISILELNVTLPEAEELK
notes: a T7 tag from pET28a may be left; source: E. coli Rosetta(DE3)pLysS, purified (nickel IMAC, desalting)
B7: MinC-1xAGGSG linker mutant (natural protein, E. coli)
chain: MSNTPIELKGSSFTLSVVHLHEAEPKVIHQALEDKIAQAPAFLKHAPVVLNVSALEDPVNWSAMHKAVSATGLRVIGVSGCKDAQLKAEIEKMGLPILTEGAGGSGPVTKTRLIDTPVRSGQRIYAPQCDLIVTSHVSAGAELIADGNIHVYGMMRGRALAGASGDRETQIFCTNLMAELVSIAGEYWLSDQIPAEFYGKAARLQLVENALTVQPLN
notes: MinC, E. coli MG1655, N-terminal part before the linker, residues 1-101; linker that replaces residues 102-120 of MinC; MinC, E. coli MG1655, C-terminal part after the linker, residues 121-231; source: E. coli Rosetta(DE3)pLysS, purified (nickel IMAC, desalting); His tag removed with thrombin; not shown: T7 tag, N-terminal, kept

Biological target: T1, MinD (E. coli) (E. coli, UniProt P0AEZ3 1-270)
T1 construct: source: E. coli Rosetta(DE3)pLysS, purified (nickel IMAC, desalting); His tag removed with thrombin; not shown: T7 tag, N-terminal, kept
T1 sequence (looked up): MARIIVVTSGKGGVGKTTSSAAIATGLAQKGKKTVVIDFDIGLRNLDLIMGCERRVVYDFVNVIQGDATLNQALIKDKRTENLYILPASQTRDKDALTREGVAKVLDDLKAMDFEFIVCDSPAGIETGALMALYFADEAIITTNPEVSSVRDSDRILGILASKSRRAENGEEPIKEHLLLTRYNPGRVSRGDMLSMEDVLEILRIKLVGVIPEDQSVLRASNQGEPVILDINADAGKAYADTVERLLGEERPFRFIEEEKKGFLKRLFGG
Assay: co-sedimentation; liposome co-sedimentation without DNA: MinD 2 uM, MinC 2 uM, 0.5 mg/mL liposomes, 1 mM ATP, ATPase buffer (25 mM Tris-HCl pH 7.5, 50 mM KCl, 5 mM MgCl2, 5% glycerol); SDS-PAGE, Coomassie
Conditions: both partners purified

Binding result, binds:
B1
B2

Biological target: T1, MinD (E. coli)
Assay: co-sedimentation; liposome co-sedimentation without DNA, competition: MinD 1 uM, MinC 1 uM, increasing MinE, 160 ug/mL liposomes, 1 mM ATP, ATPase buffer; SDS-PAGE, Coomassie
Conditions: both partners purified

Binding result, binds:
B3
B4
B5
B6
B7

From doi:10.1101/2025.02.06.636808, “DNA Binding by the Escherichia coli MinC–MinD Complex Requires the MinC Interdomain Linker” (bioRxiv, 2025)
